T1: GST-NF2 C-terminal half (342-595 aa) (human, UniProt P35240 342-595)
T1 sequence (looked up): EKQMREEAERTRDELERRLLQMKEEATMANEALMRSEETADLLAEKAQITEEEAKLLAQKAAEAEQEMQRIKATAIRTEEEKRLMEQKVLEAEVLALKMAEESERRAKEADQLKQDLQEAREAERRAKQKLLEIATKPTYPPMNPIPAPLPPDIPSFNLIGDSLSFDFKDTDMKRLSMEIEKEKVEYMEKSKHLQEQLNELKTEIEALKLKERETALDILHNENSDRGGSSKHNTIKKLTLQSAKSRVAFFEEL

T2: GST-tagged full-length NF2 (human, UniProt P35240 1-595)
T2 sequence (looked up): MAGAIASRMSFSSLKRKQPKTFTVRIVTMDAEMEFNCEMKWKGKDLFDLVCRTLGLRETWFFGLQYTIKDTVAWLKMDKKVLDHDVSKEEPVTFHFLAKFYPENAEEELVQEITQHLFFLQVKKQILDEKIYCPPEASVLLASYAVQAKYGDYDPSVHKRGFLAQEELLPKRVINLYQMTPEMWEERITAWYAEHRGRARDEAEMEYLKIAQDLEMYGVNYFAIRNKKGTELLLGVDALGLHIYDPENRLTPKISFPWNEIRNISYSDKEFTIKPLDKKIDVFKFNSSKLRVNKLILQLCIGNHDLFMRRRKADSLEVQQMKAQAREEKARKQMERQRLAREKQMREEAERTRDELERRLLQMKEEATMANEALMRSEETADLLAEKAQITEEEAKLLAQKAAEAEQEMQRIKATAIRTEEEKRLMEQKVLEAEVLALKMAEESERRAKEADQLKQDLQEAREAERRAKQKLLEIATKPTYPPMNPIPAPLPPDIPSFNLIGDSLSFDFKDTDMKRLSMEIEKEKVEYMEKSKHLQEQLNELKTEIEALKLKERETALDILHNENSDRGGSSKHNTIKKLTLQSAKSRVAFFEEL

T3: GST-NF2 FERM domain (1-341 aa) (human, UniProt P35240 1-341)
T3 sequence (looked up): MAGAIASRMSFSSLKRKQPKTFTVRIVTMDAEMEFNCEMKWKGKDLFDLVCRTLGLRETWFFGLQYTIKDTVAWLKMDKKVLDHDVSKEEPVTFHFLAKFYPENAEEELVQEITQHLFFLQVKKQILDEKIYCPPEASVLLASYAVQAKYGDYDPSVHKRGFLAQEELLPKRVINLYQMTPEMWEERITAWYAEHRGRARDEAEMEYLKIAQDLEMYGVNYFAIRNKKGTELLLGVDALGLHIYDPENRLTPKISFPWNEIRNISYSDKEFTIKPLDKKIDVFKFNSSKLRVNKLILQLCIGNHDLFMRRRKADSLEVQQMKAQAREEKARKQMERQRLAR

T4: MBP-NF2 (18-595) (human, UniProt P35240 18-595)
T4 sequence (looked up): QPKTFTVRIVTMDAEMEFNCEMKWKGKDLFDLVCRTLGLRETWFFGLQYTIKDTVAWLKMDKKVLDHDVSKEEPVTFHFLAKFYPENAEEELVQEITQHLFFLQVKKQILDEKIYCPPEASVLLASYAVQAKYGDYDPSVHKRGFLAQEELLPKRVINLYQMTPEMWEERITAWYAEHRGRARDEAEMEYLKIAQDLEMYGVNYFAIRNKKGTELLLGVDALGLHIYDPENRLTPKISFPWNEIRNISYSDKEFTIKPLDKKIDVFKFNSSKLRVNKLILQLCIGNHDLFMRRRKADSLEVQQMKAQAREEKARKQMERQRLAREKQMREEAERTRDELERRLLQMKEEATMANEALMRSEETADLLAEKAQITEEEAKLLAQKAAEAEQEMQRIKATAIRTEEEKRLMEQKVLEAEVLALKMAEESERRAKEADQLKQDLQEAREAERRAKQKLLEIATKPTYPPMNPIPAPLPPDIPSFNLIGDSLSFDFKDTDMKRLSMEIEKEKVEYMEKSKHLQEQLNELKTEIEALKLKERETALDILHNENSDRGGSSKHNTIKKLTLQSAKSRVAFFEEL

T5: MBP-NF2 A585W (human, UniProt P35240 18-595, A585W)
T5 sequence (looked up): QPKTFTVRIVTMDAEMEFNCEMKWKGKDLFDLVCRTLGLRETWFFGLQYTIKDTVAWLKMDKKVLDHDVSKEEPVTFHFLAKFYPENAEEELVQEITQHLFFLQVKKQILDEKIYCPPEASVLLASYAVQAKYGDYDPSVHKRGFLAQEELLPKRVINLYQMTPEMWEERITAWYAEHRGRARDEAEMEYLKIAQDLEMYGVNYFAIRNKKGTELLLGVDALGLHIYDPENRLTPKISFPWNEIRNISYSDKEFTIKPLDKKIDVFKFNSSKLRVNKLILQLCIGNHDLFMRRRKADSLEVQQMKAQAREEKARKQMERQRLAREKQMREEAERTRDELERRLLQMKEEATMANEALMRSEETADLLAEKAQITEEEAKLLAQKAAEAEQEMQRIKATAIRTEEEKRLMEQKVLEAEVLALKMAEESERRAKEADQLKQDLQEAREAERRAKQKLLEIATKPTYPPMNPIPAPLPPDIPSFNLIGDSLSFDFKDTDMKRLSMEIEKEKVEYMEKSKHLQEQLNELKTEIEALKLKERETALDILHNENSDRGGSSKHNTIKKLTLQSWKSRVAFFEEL

B1: His-TEAD4-YBD (domain or fragment, human, UniProt Q15561 217-434, looked up)
chain: RSVASSKLWMLEFSAFLEQQQDPDTYNKHLFVHIGQSSPSYSDPYLEAVDIRQIYDKFPEKKGGLKDLFERGPSNAFFLVKFWADLNTNIEDEGSSFYGVSSQYESPENMIITCSTKVCSFGKQVVEKVETEYARYENGHYSYRIHRSPLCEYMINFIHKLKHLPEKYMMNSVLENFTILQVVTNRDTQETLLCIAYVFEVSASEHGAQHHIYRLVKE

How the values were obtained:
Test in all cases: pull-down
[1] = target: B1
[2] = target: T1, GST-NF2 C-terminal half (342-595 aa)
[3] = target: T2, GST-tagged full-length NF2
[4] = target: T3, GST-NF2 FERM domain (1-341 aa)
[5] = target: T4, MBP-NF2 (18-595)
[6] = target: T5, MBP-NF2 A585W

binding result [1]	binding result [2]	binding result [3]	binding result [4]	binding result [5]	binding result [6]	Binder
binds						GST-NF2-507-595 (domain or fragment, human, UniProt P35240 507-595, looked up) FDFKDTDMKRLSMEIEKEKVEYMEKSKHLQEQLNELKTEIEALKLKERETALDILHNENSDRGGSSKHNTIKKLTLQSAKSRVAFFEEL
	binds	binds	binds			SUMO-His-tagged TEAD4 YBD domain (217-434) (domain or fragment, human, UniProt Q15561 217-434, looked up) RSVASSKLWMLEFSAFLEQQQDPDTYNKHLFVHIGQSSPSYSDPYLEAVDIRQIYDKFPEKKGGLKDLFERGPSNAFFLVKFWADLNTNIEDEGSSFYGVSSQYESPENMIITCSTKVCSFGKQVVEKVETEYARYENGHYSYRIHRSPLCEYMINFIHKLKHLPEKYMMNSVLENFTILQVVTNRDTQETLLCIAYVFEVSASEHGAQHHIYRLVKE
			binds	binds	binds	B1

Source: publication PMC11046300 (The Journal of Biological Chemistry, 2024)
